Positions count from the first letter of the chain named. In names and notes the source's numbering stands. Like-named read-outs stand apart in the source and are kept apart here.
Legend:
Experiment in all cases: cell-based or functional assay
[1] = biological target: T1, Movement Protein of ToBRFV (Tomato Brown Rugose Fruit Virus …, UniProt A0A0S2SZW1 1-266)
T1 sequence: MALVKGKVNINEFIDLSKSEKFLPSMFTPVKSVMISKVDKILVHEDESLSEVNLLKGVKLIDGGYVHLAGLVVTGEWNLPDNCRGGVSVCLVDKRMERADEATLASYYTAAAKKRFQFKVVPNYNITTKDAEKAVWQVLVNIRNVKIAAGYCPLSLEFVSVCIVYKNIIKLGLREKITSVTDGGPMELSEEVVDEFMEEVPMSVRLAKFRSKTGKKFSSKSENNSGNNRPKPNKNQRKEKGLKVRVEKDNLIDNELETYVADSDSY

[2] = biological target: T1, Movement Protein of ToBRFV; remark: listed apart in the source
[3] = biological target: T1, Movement Protein of ToBRFV; remark: listed apart in the source
[4] = biological target: T1, Movement Protein of ToBRFV; remark: listed apart in the source
[5] = biological target: T1, Movement Protein of ToBRFV; remark: listed apart in the source
[6] = biological target: T1, Movement Protein of ToBRFV; remark: listed apart in the source
[7] = biological target: T1, Movement Protein of ToBRFV; remark: listed apart in the source

B1: TM-2-2 variant pJL 466 (F655L) (receptor)
chain: MAEILLTSVINKSVEIAGNLLIQEGKRLYWLKEDIDWLQREMRHIRSYVDNAKAKEAGGDSRVKNLLKDIQELAGDVEDLLDDFLPKIQQSNKFNYCLKRSSFADEFAMEIEKIKRRVVDIDRIRKTYNIIDTDNNNDDCVLLDRRRLFLHADETEIIGLDDDFNMLQAKLLNQDLHYGVVSIVGMPGLGKTTLAKKLYRLIRDQFECSGLVYVSQQPRASEILLDIAKQIGLTEQKMKENLEDNLRSLLKIKRYVILLDDIWDVEIWDDLKLVLPECDSKVGSRMIITSRNSNVGRYIGGESSLHALQPLESEKSFELFTKKIFNFDDNNSWANASPDLVNIGRNIVGRCGGIPLAIVVTAGMLRARERTEHAWNRVLESMGHKVQDGCAKVLALSYNDLPIASRPCFLYFGLYPEDHEIRAFDLINMWIAEKFIVVNSGNRREAEDLAEDVLNDLVSRNLIQLAKRTYNGRISSCRIHDLLHSLCVDLAKESNFFHTAHDAFGDPGNVARLRRITFYSDNVMIEFFRSNPKLEKLRVLFCFAKDPSIFSHMAYFDFKLLHTLVVVMSQSFQAYVTIPSKFGNMTCLRYLRLEGNICGKLPNSIVKLTRLETIDIDRRSLIQPPSGVWESKHLRHLCYRDYGQACNSCFSISSLYPNIYSLHPNNLQTLMWIPDKFFEPRLLHRLINLRKLGILGVSNSTVKMLSIFSPVLKALEVLKLSFSSDPSEQIKLSSYPHIAKLHLNVNRTMALNSQSFPPNLIKLTLAYFSVDRYILAVLKTFPKLRKLKMFICKYNEEKMDLSGEANGYSFPQLEVLHIHSPNGLSEVTCTDDVSMPKLKKLLLTGFHCRISLSERLKKLSK
- HR when expressed with MP Rugose [1]: < 1 HR scale 0-4

B2: TM-2-2 variant pJL 477_H (822 H, 848 R) (receptor)
chain: B1 chain with L655F, N822H, C848R
- HR to MP Rugose [2]: < 1 HR scale 0-4

B3: TM-2-2 variant pJL 511_12 (767 D, 848 R) (receptor)
chain: B1 chain with L655F, Y767D, C848R
- HR to MP Rugose [3]: 0 HR scale 0-4

B4: TM-2-2 variant pJL 511_8 (767 D, 769 A, 848 R) (receptor)
chain: B1 chain with L655F, Y767D, S769A, C848R
- HR to MP Rugose [3]: 0 HR scale 0-4

B5: TM-2-2 variant L11_19 (767 N) (receptor)
chain: B1 chain with L655F, Y767N
- HR to MP Rugose [4]: 0 HR scale 0-4

B6: TM-2-2 variant pJL 511_5 (767 Y wt, 769 S wt, 848 R) (receptor)
chain: B1 chain with L655F, C848R
- HR to MP Rugose [3]: 4 HR scale 0-4

B7: TM-2-2 variant pJL 476_T (822 T, 848 R) (receptor)
chain: B1 chain with L655F, N822T, C848R
- HR to MP Rugose [2]: < 1 HR scale 0-4

B8: TM-2-2 variant pJL 480I (848 R, 857 I) (receptor)
chain: B1 chain with L655F, C848R, K857I
- HR to MP Rugose [5]: < 1 HR scale 0-4

B9: TM-2-2 variant L11_15 (767 L) (receptor)
chain: B1 chain with L655F, Y767L
- HR to MP Rugose [4]: 0 HR scale 0-4

B10: TM-2-2 variant pJL 480Q (848 R, 857 Q) (receptor)
chain: B1 chain with L655F, C848R, K857Q
- HR to MP Rugose [5]: 3 HR scale 0-4

B11: TM-2-2 variant L12_A (769 A) (receptor)
chain: B1 chain with L655F, S769A
- HR to MP Rugose [6]: 0 HR scale 0-4

B12: TM-2-2 variant pJL 468_H (848 H) (receptor)
chain: B1 chain with L655F, C848H
- HR when expressed with MP Rugose [7]: < 1 HR scale 0-4

B13: TM-2-2 variant pJL 476_S (822 S, 848 R) (receptor)
chain: B1 chain with L655F, N822S, C848R
- HR to MP Rugose [2]: 4 HR scale 0-4

B14: TM-2-2 variant pJL 511_2 (767 S, 848 R) (receptor)
chain: B1 chain with L655F, Y767S, C848R
- HR to MP Rugose [3]: 0 HR scale 0-4

B15: TM-2-2 variant pJL 480T (848 R, 857 T) (receptor)
chain: B1 chain with L655F, C848R, K857T
- HR to MP Rugose [5]: < 1 HR scale 0-4

B16: TM-2-2 variant L11_20 (767 V) (receptor)
chain: B1 chain with L655F, Y767V
- HR to MP Rugose [4]: 0 HR scale 0-4

B17: TM-2-2 variant L12_4 (769 F) (receptor)
chain: B1 chain with L655F, S769F
- HR to MP Rugose [6]: < 1 HR scale 0-4

B18: TM-2-2 variant pJL 480E (848 R, 857 E) (receptor)
chain: B1 chain with L655F, C848R, K857E
- HR to MP Rugose [5]: < 1 HR scale 0-4

B19: TM-2-2 variant pJL 476_I (822 I, 848 R) (receptor)
chain: B1 chain with L655F, N822I, C848R
- HR to MP Rugose [2]: 0 HR scale 0-4

B20: TM-2-2 variant L12_16 (769 E) (receptor)
chain: B1 chain with L655F, S769E
- HR to MP Rugose [6]: < 1 HR scale 0-4

B21: TM-2-2 variant pJL 468_P (848 P) (receptor)
chain: B1 chain with L655F, C848P
- HR when expressed with MP Rugose [7]: < 1 HR scale 0-4

B22: TM-2-2 variant pJL 476_R (822 R, 848 R) (receptor)
chain: B1 chain with L655F, N822R, C848R
- HR to MP Rugose [2]: 0 HR scale 0-4

B23: TM-2-2 variant pJL 468_Q (848 Q) (receptor)
chain: B1 chain with L655F, C848Q
- HR when expressed with MP Rugose [7]: < 1 HR scale 0-4

B24: TM-2-2 variant pJL 468_R (848 R) (receptor)
chain: B1 chain with L655F, C848R
- HR when expressed with MP Rugose [7]: 4 HR scale 0-4

B25: TM-2-2 variant pJL 468_S (848 S) (receptor)
chain: B1 chain with L655F, C848S
- HR when expressed with MP Rugose [7]: ~1 HR scale 0-4

B26: TM-2-2 variant pJL 511_1 (767 S, 769 A, 848 R) (receptor)
chain: B1 chain with L655F, Y767S, S769A, C848R
- HR to MP Rugose [3]: 0 HR scale 0-4

B27: TM-2-2 variant pJL 468_A (848 A) (receptor)
chain: B1 chain with L655F, C848A
- HR when expressed with MP Rugose [7]: < 1 HR scale 0-4

B28: TM-2-2 variant pJL 468_K (848 K) (receptor)
chain: B1 chain with L655F, C848K
- HR when expressed with MP Rugose [7]: ~1 HR scale 0-4

B29: TM-2-2 variant L12_11 (769 G) (receptor)
chain: B1 chain with L655F, S769G
- HR to MP Rugose [6]: < 1 HR scale 0-4

B30: TM-2-2 variant pJL 477_D (822 D, 848 R) (receptor)
chain: B1 chain with L655F, N822D, C848R
- HR to MP Rugose [2]: < 1 HR scale 0-4

B31: TM-2-2 variant L11_11 (767 C) (receptor)
chain: B1 chain with L655F, Y767C
- HR to MP Rugose [4]: 0 HR scale 0-4

B32: TM-2-2 variant L12_3 (769 V) (receptor)
chain: B1 chain with L655F, S769V
- HR to MP Rugose [6]: < 1 HR scale 0-4

B33: TM-2-2 variant L11_10 (767 I) (receptor)
chain: B1 chain with L655F, Y767I
- HR to MP Rugose [4]: 0 HR scale 0-4

B34: TM-2-2 variant pJL 468_E (848 E) (receptor)
chain: B1 chain with L655F, C848E
- HR when expressed with MP Rugose [7]: < 1 HR scale 0-4

B35: TM-2-2 variant L12_12 (769 R) (receptor)
chain: B1 chain with L655F, S769R
- HR to MP Rugose [6]: < 1 HR scale 0-4

B36: TM-2-2 variant pJL 476_K (822 K, 848 R) (receptor)
chain: B1 chain with L655F, N822K, C848R
- HR to MP Rugose [2]: 0 HR scale 0-4

B37: TM-2-2 variant L11_1 (767 R) (receptor)
chain: B1 chain with L655F, Y767R
- HR to MP Rugose [4]: < 1 HR scale 0-4

B38: TM-2-2 variant pJL 476_C (822 C, 848 R) (receptor)
chain: B1 chain with L655F, N822C, C848R
- HR to MP Rugose [2]: 2 HR scale 0-4

B39: TM-2-2 variant pJL 468_N (848 N) (receptor)
chain: B1 chain with L655F, C848N
- HR when expressed with MP Rugose [7]: < 1 HR scale 0-4

B40: TM-2-2 variant pJL 468_T (848 T) (receptor)
chain: B1 chain with L655F, C848T
- HR when expressed with MP Rugose [7]: ~1 HR scale 0-4

B41: TM-2-2 variant pJL 476_F (822 F, 848 R) (receptor)
chain: B1 chain with L655F, N822F, C848R
- HR to MP Rugose [2]: 2 HR scale 0-4

B42: TM-2-2 variant pJL 468_M (848 M) (receptor)
chain: B1 chain with L655F, C848M
- HR when expressed with MP Rugose [7]: < 1 HR scale 0-4

B43: TM-2-2 variant pJL 468_D (848 D) (receptor)
chain: B1 chain with L655F, C848D
- HR when expressed with MP Rugose [7]: < 1 HR scale 0-4

B44: TM-2-2 variant L11_16 (767 G) (receptor)
chain: B1 chain with L655F, Y767G
- HR to MP Rugose [4]: 0 HR scale 0-4

B45: TM-2-2 variant pJL 468_L (848 L) (receptor)
chain: B1 chain with L655F, C848L
- HR when expressed with MP Rugose [7]: < 1 HR scale 0-4

B46: TM-2-2 variant pJL 511_3 (767 Y, 769 A, 848 R) (receptor)
chain: B1 chain with L655F, S769A, C848R
- HR to MP Rugose [3]: 4 HR scale 0-4

B47: TM-2-2 variant pJL 480R (848 R, 857 R) (receptor)
chain: B1 chain with L655F, C848R, K857R
- HR to MP Rugose [5]: < 1 HR scale 0-4
